This series is described as follows: yeast display, Sf9 membrane polyspecificity reagent, FACS + sequencing; frameworks hold sequencing errors. In outline:
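Synthetic nanobody libraries on Saccharomyces cerevisiae BJ5465 were galactose-induced for 36–48 hours, stained 1 hour at 4 °C with 10% biotinylated, detergent-solubilized Sf9 membrane reagent and enriched on streptavidin microbeads. FACS then separated cells into low and high (top ~1%) gates by anti-HA (expression) and streptavidin (reagent binding) fluorescence. Genes were colony-PCR amplified, MiSeq 2 × 250 sequenced and CDR-length filtered. A clone's polyreactivity label is that of its gate of origin.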
Turning to “QVQLVESGGGLVKAGGSLRLSCAASGSTYQTYAMGWYRHAPGKERELVAAISFNGGSTYYADSVKGRFTISRDNAKNTVYLQMNSLKPEDTAVYYCAVEYTWASALYDGRHDYWGQGTQVTVSS”, the “polyreactivity (PSR sort gate)” value is “high polyreactivity”.

Take “QVQLVESGGGLVKAGGSLRLSCVASGLMFGYCAMGWYRQPPGTERELVAVISWSGTSRYYADSVKGRFTISRDNAKNTVYLQMNSLKPEDTAVYYCIADTYGYYLWTGAVSAGDDYWVQGTQVTVSS”: the “polyreactivity (PSR sort gate)” value is “low polyreactivity”.

As for “QVQLVESGGGLVKAGGSLRLTCSASGSIFRRNALRCSRHAPGKERELDAAISSGGSTNYADSVKGRFTISRDNAKNTVYLQMISQKPEDSAVYYCNTRYFRRARKGDSWGQGTQVTVSS”, the “polyreactivity (PSR sort gate)” value was “high polyreactivity”. Regarding “QVQLVESGGGLVKAGVSLRLICAASGSTFDGNDMGWYRQAHGKERELVATINSDDSKNYADSVKGRFTISRDNAKNTVYLQMNSLKPEDTAVYYCAARLYVTPILSYVERYTNDYWGQGTQVTVSS”, the “polyreactivity (PSR sort gate)” value was “low polyreactivity”. As for “QVQLVESGGGLVKAGVSLRLICAASGSTFWYNDRGSYRQSPGKERELVASNSWSGGDTYYADSVKGRLTISRDNAQNTVYFQMNRLKPEDTAVYNCAKGNNWISRLMDYWGQGTQVTVSS”, the “polyreactivity (PSR sort gate)” value is “low polyreactivity”. Next, “QVQLVESGGGLVLAGGRLRLSCAASGRIFTRYAMGCYRQAPGKERELVAVITRSGGSTYYADSVKGRFTISRDIAKNTVYLQMNSLKPEDTAVYYCAAKYYGEMYYWGQGTQVTVSS”: “low polyreactivity”; “QVQLVESGGGLVLAGGRLRLSFAASGFIFYQYAKAWYRQATGKEWEFVAAISRNGGSTYYADSVKGRFTISRDNATNTVYLQMNSLKPEDTAVYYCNRDCGGLWSENGYWGQGPQVTVSS”: “high polyreactivity”.

For the sequence “QVQLVESGGGLVLAGGSLRLSCAASGITFFTYTMGWYRQAPGKERELVARIRWDGGSTYYADSVKGRFTISRDNAKNTVYLQMNSLKPEDTAVYYCAADYPYSTYDYWGQGTQVTVSS”, the “polyreactivity (PSR sort gate)” value is given as “low polyreactivity”.

As to “QVQLVESGGGLVLAGGSLRLSCAASGRIFAVYAMGWYRQAPGQERELVAAIRARGGSTYYADSVKGRFTISRDNAKNTVDLQMNSLKPEDTPDYYCTARTSYSRTYRYYYWGQGTQVTVSS”, the “polyreactivity (PSR sort gate)” value was “high polyreactivity”. Next, “QVQLVESGGGLVLAGGSLRLSCAASGRIFWNYAMGWYRQAPGKERELVASINWSGGSTYYADSVKGRFTISRDNAKNTVYLQMNSLKPEDTAVYYCNKDGRVYLDHDYWGQGTQVTVSS”: “low polyreactivity”; “QVQLVESGGGLVLAGGSLRLSCAASGRPFYGNTMGWYRQAPGKERELVAAISYSGGTTSYADSVKGRFTISRDNAKNTVYLQMNSLKPEDTAVYYCAKRYSYWWTSGYDYWGQGTQVTVSS”: “high polyreactivity”; “QVQLVESGGGLVLAGGSLRLSCAASGRTFGVYAMGWYRQAPGKERELVADITYRDGSTYYADSVKGRFTISRDNAKNTVYLQMHSLKPEDTAVYYCAAAESTWFDWVWMDYWGQGTQVTVSS”: “high polyreactivity”.

Consider “QVQLVESGGGLVLAGGSLRLSCAASGRTFGWNAMGWYRQAPGTERELVAAISWSGGSTSYADSVKARFTISRDNAKNTVYLQMNSLKPEDTAVYYCGKLDSYGMYYWGQGTQVTVSS”, for which the “polyreactivity (PSR sort gate)” value is reported as “low polyreactivity”. Next, “QVQLVESGGGLVLAGGSLRLSCAASGSMFGGYAMGWYLQSPGKERELVAAISYRGASTYYADSVKGRFTISRDNAKNTVYLQMNSVKPEDTAVYYCAVAARTRDRVLYGYDYWGQGTQVTVSS”: “low polyreactivity”; “QVQLVESGGGLVLAGGSLRLSCAASGSTFDTYAMGWYRQAPGKERELVAAITSGGITNYADSVKGRFTISRDNAKNTVYVQMNSLKPEDTAVYYCAKEGFWPRQARRLDYWGQGTQVTVSS”: “low polyreactivity”. The same measure for “QVQLVESGGGLVLAGGSLRLSCASSGRIFYGYAMVWSRQAPGKERELVAAITSSGRTYYADSVKGRFSISRDNAKNTVYLLMNSLKPEDTAVYYCNVVTKFTGRGYDFWGQGTQVTVSS”: “high polyreactivity”; for “QVQLVESGGGLVLAGGSLRLTCAASGRTFSQYTMGWYRQAPGKERELVAAISVSGTSTYYADSVKGRFTISRDNAKNTVYLQMNSLKPEDTAVYYCAAGYQRITRFAHRKYGYWGQGTQVTVSS”: “high polyreactivity”; for “QVQLVESGGGLVLTGGSLRLSCAASGSILGTYAMGWYRQAPGKERELVARISRGGSTNYADSVKGRFTISRDNAKNTVYLQMNSLKPEDTAVYYCAKRLYLPESWRYYYWGQGTQVTVSS”: “high polyreactivity”. Next, “QVQLVESGGGLVPAGGSLRLICAASGSTFYGYAIGWYRPAPGKVRELVATITSGGTRTRYADSVKGRFTISRDNAKKTVYLQMNSLKPEDTAVYYCNAVYRARSYDYWGQGTQVTVSS”: “high polyreactivity”. As to “QVQLVESGGGLVPAGGSLRLSCAASGFIFRYNTMGWYRQAPGKERELVAAITSGDSTYYADSVKGRFTISRDNAKNTVYLQMNSLKPEDTAVFYCAAAAYDSNGRYYYWGQGTQVSVSS”, the “polyreactivity (PSR sort gate)” value was “high polyreactivity”.

On to “QVQLVESGGGLVPAGGSLRLSCAASGFTFDSYAMGWYRQAPGKERELVAAMSYRGGTTYYADSVKGRFTISRDNAKNTVYLQMNSLKPEDTAVYYCTRLWKYGYNYWGQGTQVTVSS”, for which the “polyreactivity (PSR sort gate)” value is “high polyreactivity”.

For the sequence “QVQLVESGGGLVPAGGSLRLSCAASGITIGRNTMGWYRQAPGKERELVAAIDSGGNTYADSVKGRFTISRDNAKNTVYLQMNSLKPEDTAVYYCAVDGGEFSSYGYWGQGTQVTVSP”, the “polyreactivity (PSR sort gate)” value is “low polyreactivity”. Next, “QVQLVESGGGLVPAGGSLRLSCAASGRIFRGYAMGWYRQAHGKEREFVAAITKNGGTTYYADSVKGRFTISRDNAKNTVYLQMNSLKPEDTAVYYCNKDGYPWPPNLDYWGQGTQVTVSS”: “low polyreactivity”; “QVQLVESGGGLVPAGGSLRLSCAASGRIFRVYAMGWYRQAPGKERELVASISSGGSTNYADSVKGRFTISRDNAKNTVYLQMNSLKPEDTAVYYCAADYWYRLFWYYGAPLDYWGQGTQVTVSS”: “low polyreactivity”; “QVQLVESGGGLVPAGGSLRLSCAASGRTFYTNSMGWYRQAPGKERELVAAITYSGGSTYYADSVKWRFTISRDNAKNTVYLHMNSLKPEDTAVYYCAADYRAPLDYWGQGTQVTVSS”: “low polyreactivity”.

As for “QVQLVESGGGLVPAGGSLRLSCAASGSIFYHNAMGWYRQAPGKERELVAAISYRTGRTYYADSVKGRFTISRDNAKNTVYLQMNSLKPEDTAVYYCAAPYSWGQATQVTVSS”, the “polyreactivity (PSR sort gate)” value was “high polyreactivity”. Next, “QVQLVESGGGLVPAGGSLRLSCAASGSMNTLYAMGWYRHAPGKERDLVADITRSGGSTYYADSVKGRFTISRDNAMNTVYLQMNSLKPEDTAVYYCAADKAPYSTEGDYWGQGTQVTVSS”: “high polyreactivity”; “QVQLVESGGGLVPAGGSLRLSCAASGSTFCPYAMGWYRQAPGKERELVADITSSGGSTYYADSVKGRFTISRDNAKNTVYLQMNSLKPEDTAVYYCAADWSNLGAYDYWGQRTQVTVSS”: “low polyreactivity”; “QVQLVESGGGLVPAGGSLRLSCAASGYTFQYNDRGWYRHAPGKETELVAGISIGGSTNYADSVKGRFTISRDNAKHTVYLQMNSLKPEDTAVYYCAARTLWFPGPTSTTVGYKDGYWGQGTQVTVSS”: “low polyreactivity”. In the case of “QVQLVESGGGLVPAGGSLRLSCASSGRTFYPYAMGRYRQAPGKERELVAAITTSGGRTYYADSVKGRFTISRDNAKNTVYLQMNSLKPEDTGVYYCAKVYREGEGKFDYWGQGTQVTVSS”, the “polyreactivity (PSR sort gate)” value is reported as “high polyreactivity”. As to “QVQLVESGGGLVPAGGSRRLSCAASGFTFGGYAMGWYRQAPGKETELVAAMRSSGDTTYDADSVKGRFTISRDNAKKTVNLQMNSLKPEDTAVYYCAARWGTYWGGLGGDPDIDYDDWGQGTQVTVSS”, the “polyreactivity (PSR sort gate)” value is listed as “low polyreactivity”. The same measure for “QVQLVESGGGLVPARGSLRLSSAASGIIFSRYAMGWYRQAPGKERELVAAITRSGGDTYYADSVKGRFTISRDNAKTTFYLQMKSLTPEDSADYYCAAERTWYPWVATGYYWGQGTQVTVSS”: “low polyreactivity”.

“QVQLVESGGGLVQAAGRLRLSCAASGRIFQWNAMGWSRQAPGKERQLVATISSRGGSTYYADSVKGRFTISRDNEKITVYLQMNSLIPEDTAVYYCAARYYAKYRSYDYWGQGSQVTVSS”: the “polyreactivity (PSR sort gate)” value is given as “high polyreactivity”. As to “QVQLVESGGGLVQAAGSLLLSCAPSGFIFYYNAMGWYRQAPGKETELVATIRGSGGSTYYADSVKGRFTISRDYAKNTVYLQMNSLKPEDTAVYYCAASVQYRRLKKFYYWGQGTQVTVSS”, the “polyreactivity (PSR sort gate)” value is “high polyreactivity”. The same measure for “QVQLVESGGGLVQAAGSLRLSCAASGFTFLRYAMGWYRQAPGKERELVAGITKSGGTTYYADSVKGRFTISRDNAKNTVYLQMNSLKPEDTAVYYCNALYSRRRRPYTDDYDYWGQGTQVTVSS”: “high polyreactivity”; for “QVQLVESGGGLVQAAGSLRLSCAASGLTFYYYAMGWYRQAPGKERELVAGISGSDGSTYYADSVNGRFTISRDNAKNSVYLQMNSLTPEDTAVYYCAAEYYYAWPLYYITDGIYDMYYWGQGTQVTVSS”: “low polyreactivity”. Regarding “QVQLVESGGGLVQAAGSLRLSCAASGRILDFYDMGWYRQAPGKERELVAAITSGTSTYYADSVKGRFTISRDNAKNTVYLQMNSMKPEDTAVYYCAAAHVPVGQYVYWYDYWGQGTQVTVSS”, the “polyreactivity (PSR sort gate)” value was “low polyreactivity”. Next, “QVQLVESGGGLVQAAGSLRLSCAASGRTFSANAMGWYRQAPGKERELVATISSGGRTNYADSVKGRFTISRDNAKNTVYLQMNSLKPEDTAVYYCAKRGPYKRWYGRYDYCGQGTQVTVSS”: “low polyreactivity”. The same measure for “QVQLVESGGGLVQAAGSLRLSCAASGSIFIQYAMGWYRQAPGKERELVAAITRRGGRTYYADSVKGRFTISRDNAKNTVYLQLNSLKPEDTAVYYCNAVPIGQWAYDYWGQGTQVTVSS”: “high polyreactivity”; for “QVQLVESGGGLVQAAGSLRLSCAASGSIFTVYVMGWYRLAPGKEREFVATINWRGTSTYYADSVKGRFTISRDNEKNTVYLQMNSLKPEDTAVYYCAAVGSYYGGYDYWGQGTQVTVSS”: “high polyreactivity”; for “QVQLVESGGGLVQAAGSLRLSCAASGSISGYYAMGWYRQAPGKERELVASIRYTGARTYYADSVKGRFTISRDNAKNTVYLQMNSLKPEDTAVYYCAADVKRDRVWGGDYWGQGTQVTVSS”: “low polyreactivity”.

For the origin of these results see the nanobody polyreactivity screen of Harvey et al. (2022).
